# From IntAct's records for PubMed 17070842
# B1: Tyrosine-protein phosphatase non-receptor type substrate 1 (Homo sapiens), P78324-4 (parent)
# chain: MEPAGPAPGRLGPLLCLLLAASCAWSGVAGEEELQVIQPDKSVLVAAGETATLRCTATSLIPVGPIQWFRGAGPGRELIYNQKEGHFPRVTTVSDLTKRNNMDFSIRIGNITPADAGTYYCVKFRKGSPDVEFKSGAGTELSVRAKPSAPVVSGPAARATPQHTVSFTCESHGFSPRDITLKWFKNGNELSDFQTNVDPVGESVSYSIHSTAKVVLTREDVHSQVICEVAHVTLQGDPLRGTANLSETIRVPPTLEVTQQPVRAENQVNVTCQVRKFYPQRLQLTWLENGNVSRTETASTVTENKDGTYNWMSWLLVNVSAHRDDVKLTCQVEHDGQPAVSKSHDLKVSAHPKEQGSNTAAENTGSNERNIYIVVGVVCTLLVALLMAALYLVRIRQKKAQGSTSSTRLHEPEKNAREITQDTNDITYADLNLPKGKKPAPQAAEPNNHTEYASIQTSPQPASEDTLTYADLDMVHLNRTPKQPAPKPEPSFSEYASVQVPRK
# B2: Signal-regulatory protein beta-1 (Homo sapiens), O00241 (parent)
# chain: MPVPASWPHLPSPFLLMTLLLGRLTGVAGEDELQVIQPEKSVSVAAGESATLRCAMTSLIPVGPIMWFRGAGAGRELIYNQKEGHFPRVTTVSELTKRNNLDFSISISNITPADAGTYYCVKFRKGSPDDVEFKSGAGTELSVRAKPSAPVVSGPAVRATPEHTVSFTCESHGFSPRDITLKWFKNGNELSDFQTNVDPAGDSVSYSIHSTARVVLTRGDVHSQVICEIAHITLQGDPLRGTANLSEAIRVPPTLEVTQQPMRAENQANVTCQVSNFYPRGLQLTWLENGNVSRTETASTLIENKDGTYNWMSWLLVNTCAHRDDVVLTCQVEHDGQQAVSKSYALEISAHQKEHGSDITHEAALAPTAPLLVALLLGPKLLLVVGVSAIYICWKQKA
# Variants of: B1
# Conditions: with cd47_human CD47, Q08722
row,Variant,effect of a mutation on the interaction
1,A57M,disrupting interaction strength

# Variants of: B2
# Conditions: with cd47_human CD47, Q08722
# Target sequence in this assay (Q08722 whole entry): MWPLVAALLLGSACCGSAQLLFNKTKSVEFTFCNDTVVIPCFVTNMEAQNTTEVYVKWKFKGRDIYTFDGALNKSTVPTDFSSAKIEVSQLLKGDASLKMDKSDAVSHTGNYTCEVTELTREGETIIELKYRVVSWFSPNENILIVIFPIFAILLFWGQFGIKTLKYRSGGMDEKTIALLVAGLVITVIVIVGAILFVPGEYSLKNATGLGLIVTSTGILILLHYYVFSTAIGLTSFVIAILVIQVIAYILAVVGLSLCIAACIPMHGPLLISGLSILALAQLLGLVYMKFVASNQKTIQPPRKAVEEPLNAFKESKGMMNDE
row,Variant,effect of a mutation on the interaction
1,M56V;M66Q;A73P,causing an interaction
2,M56V;M66Q,causing an interaction
3,M56V;M66Q;L101M,causing an interaction
